Measurements reported in patent publication EP2479185A1 (INSTITUT PASTEUR, dated 2012).

Experiments:
[1] = biological target: the molecule itself; experiment: SDS-PAGE and MALDI-TOF MS of purified VAPs (self-assembly)
[2] = biological target: the molecule itself; experiment: heterologous expression in E. coli and electron microscopy of thin sections (self-assembly)

| Protein | binding result [1] | binding result [2] |
| --- | --- | --- |
| P98 protein of Sulfolobus islandicus rod-shaped virus 2 (SIRV2) (other, Assayed as assembled VAPs (homomultimeric pyramids) from SIRV2-infected S. islandicus; Also used here for P98 expressed from pSVA1059 in S. acidocaldarius, for which no tag is stated; The number of monomers per VAP was not measured; also called SIRV2-P98; protein 98) MAITLLEGALYGFFAVTGILVGSFVVGEIVHLYNEKQNNENFAKAVDQMSKSTVIAVESIKDTTTTAINALLNMDTLRDVNALAREKAKDQNPNTQAK | binds | – |
| recombinant C-terminal his-tagged P98 expressed in E. coli Rosetta(DE3)pLys from pSVA1051 (other, Found primarily in the E. coli membrane fraction, where it forms closed VAPs on the inner membrane; also called recombinant P98; E. coli 1051 expressing SIRV2-ORF98; not shown: C-terminal his tag) MAITLLEGALYGFFAVTGILVGSFVVGEIVHLYNEKQNNENFAKAVDQMSKSTVIAVESIKDTTTTAINALLNMDTLRDVNALAREKAKDQNPNTQAK | – | binds |
